# Measurements: paper PMC7335187 (2020)
# B1: Atg40^234–252 peptide [S. cerevisiae] / Atg8 (1-116) K26P [S. cerevisiae] (parent complex)
# chain 1: TSTEFPNDYDFMEDILDET
# chain 2: MKSTFKSEYPFEKRKAESERIADRFPNRIPVICEKAEKSDIPEIDKRKYLVPADLTVGQFVYVIRKRIMLPPEKAIFIFVNDTLPPTAALMSAIYQEHKDKDGFLYVTYSGENTFG
# Variants of: B1
# Assay: ITC
row,Variant,Kd [µM]
1,chain 2 MKSTFKSEYPFEKRKAESERIADRFPNRIPVICEKAEKSDIPEIDKRKYLVPADLTVGQFVYVIRKAIMLPPEKAIFIFVNDTLPPTAALMSAIYQEHKDKDGFLYVTYSGENTFG,24.8

# Variants of: B1
# Assay: ITC
# Remark: another data set of the same source
row,Variant,Kd [µM]
1,chain 1 TSTEFPNDADFMEDILDET,32.7
2,chain 1 TSTEAPNDYDFMEDILDET,4.31
